Measurements: patent publication US20260098095A1

% of MAGE-A4 signal, Jurkat-NFAT; grey (>2%) (DPYSL2) [%]	% of MAGE-A4 signal, Jurkat-NFAT; grey (>2%) (AGFG2) [%]	% of MAGE-A4 signal, Jurkat-NFAT; grey (>2%) (TRANK1) [%]	Binder
5.19	13.3	7.67	Molecule B (bispecific antibody, V domains shown) VH 1: YPQLVESGGGLVKPGGSLRLSCAARYPFTRLDMSWVRQAPGKGLEWVGSISPKGGSTYYNDNVLGRFTISRDNSKNTLYLQMNSLRAEDTAVYYCARDWGFFDNWGQGTLVTVSS VL 1: AIQMTQSPSSLSASVGDRVTITCRASQSISNYLAWYQQKPGKAPKLLIYNASHPEYDVPSRFSGSGSGTDFTLTISSLQPEDFATYYCQQYSSHPYTFGQGTKLEIK VH 2: not shown VL 2: QAVVTQEPSLTVSPGGTVTLTCGSSTGAVTTSNYANWVQEKPGQAFRGLIGGTNKRAPGTPARFSGSLLGGKAALTLSGAQPEDEAEYYCALWYSNLWVFGGGTKLTVL
–	86.5	4.56	Molecule A (bispecific antibody, V domains shown) VH 1: YVQLVESGGGLVKPGGSLRLSCAAPLPFTGLDMSWVRQAPGKGLEWVGSISPKGGSTYYNDNVLGRFTISRDNSKNTLYLQMNSLRAEDTAVYYCARDWGFFDLWGQGTLVTVSS VL 1: AIQMTQSPSSLSASVGDRVTITCRASQSISNYLAWYQQKPGKAPKLLIYDANAHENDVPSRFSGSGSGTDFTLTISSLQPEDFATYYCQQYSSHPYTFGQGTKLEIK VH 2: not shown VL 2: QAVVTQEPSLTVSPGGTVTLTCGSSTGAVTTSNYANWVQEKPGQAFRGLIGGTNKRAPGTPARFSGSLLGGKAALTLSGAQPEDEAEYYCALWYSNLWVFGGGTKLTVL
